In this assay the target is Flag-53BP1 (human, UniProt Q12888 1-1972). The assay can be described thus: pull-down.
Sequence of Flag-53BP1 (Q12888 whole entry): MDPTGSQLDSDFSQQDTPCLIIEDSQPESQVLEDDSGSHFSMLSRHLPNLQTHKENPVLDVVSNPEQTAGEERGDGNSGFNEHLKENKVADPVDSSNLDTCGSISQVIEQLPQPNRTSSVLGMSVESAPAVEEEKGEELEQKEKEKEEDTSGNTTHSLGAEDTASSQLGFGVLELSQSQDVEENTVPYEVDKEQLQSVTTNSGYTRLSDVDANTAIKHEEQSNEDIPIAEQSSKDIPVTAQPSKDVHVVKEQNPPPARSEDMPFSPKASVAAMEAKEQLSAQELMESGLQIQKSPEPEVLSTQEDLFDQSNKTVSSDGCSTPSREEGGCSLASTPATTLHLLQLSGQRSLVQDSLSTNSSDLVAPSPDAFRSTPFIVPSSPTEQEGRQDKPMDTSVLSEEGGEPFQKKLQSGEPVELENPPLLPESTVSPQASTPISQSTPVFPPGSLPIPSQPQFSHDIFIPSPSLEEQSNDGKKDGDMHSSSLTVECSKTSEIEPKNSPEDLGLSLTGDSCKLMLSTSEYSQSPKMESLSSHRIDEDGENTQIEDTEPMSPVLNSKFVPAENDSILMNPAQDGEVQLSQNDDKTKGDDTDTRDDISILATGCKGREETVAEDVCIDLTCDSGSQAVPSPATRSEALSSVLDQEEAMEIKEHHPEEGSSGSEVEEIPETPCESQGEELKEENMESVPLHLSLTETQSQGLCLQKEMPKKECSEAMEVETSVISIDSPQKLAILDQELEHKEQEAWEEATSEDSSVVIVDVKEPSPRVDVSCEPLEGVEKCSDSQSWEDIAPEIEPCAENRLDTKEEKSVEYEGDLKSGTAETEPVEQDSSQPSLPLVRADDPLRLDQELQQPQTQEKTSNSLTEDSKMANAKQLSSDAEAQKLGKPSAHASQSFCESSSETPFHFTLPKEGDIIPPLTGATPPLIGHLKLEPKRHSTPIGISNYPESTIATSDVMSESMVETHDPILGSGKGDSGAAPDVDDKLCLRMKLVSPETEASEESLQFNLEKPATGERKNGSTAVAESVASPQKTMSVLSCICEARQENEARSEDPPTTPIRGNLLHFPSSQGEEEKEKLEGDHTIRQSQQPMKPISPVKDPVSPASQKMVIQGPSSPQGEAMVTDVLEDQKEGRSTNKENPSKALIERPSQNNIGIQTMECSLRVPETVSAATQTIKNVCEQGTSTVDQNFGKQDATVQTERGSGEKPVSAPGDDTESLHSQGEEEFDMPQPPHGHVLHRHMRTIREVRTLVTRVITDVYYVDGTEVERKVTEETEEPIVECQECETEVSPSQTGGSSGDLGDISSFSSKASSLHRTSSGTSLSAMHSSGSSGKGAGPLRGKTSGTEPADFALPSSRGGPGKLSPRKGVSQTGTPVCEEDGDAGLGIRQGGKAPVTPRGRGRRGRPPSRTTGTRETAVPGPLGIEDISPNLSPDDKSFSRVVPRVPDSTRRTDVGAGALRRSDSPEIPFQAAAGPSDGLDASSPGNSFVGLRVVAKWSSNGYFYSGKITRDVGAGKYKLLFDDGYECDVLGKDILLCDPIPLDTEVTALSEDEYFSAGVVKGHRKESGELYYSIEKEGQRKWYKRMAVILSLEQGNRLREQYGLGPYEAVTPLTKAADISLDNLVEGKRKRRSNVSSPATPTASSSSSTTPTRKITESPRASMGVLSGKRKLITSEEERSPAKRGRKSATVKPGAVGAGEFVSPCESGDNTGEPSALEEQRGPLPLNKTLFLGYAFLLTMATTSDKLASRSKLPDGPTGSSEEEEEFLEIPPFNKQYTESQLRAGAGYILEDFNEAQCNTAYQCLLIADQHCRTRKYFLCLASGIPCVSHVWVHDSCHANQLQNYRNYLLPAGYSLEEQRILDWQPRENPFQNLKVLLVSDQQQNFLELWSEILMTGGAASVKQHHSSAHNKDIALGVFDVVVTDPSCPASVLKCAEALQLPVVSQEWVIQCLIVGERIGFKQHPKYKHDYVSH

B1: GST-TPX2 (natural protein)
chain: MSQVKSSYSYDAPSDFINFSSLDDEGDTQNIDSWFEEKANLENKLLGKNGTGGLFQGKTPLRKANLQQAIVTPLKPVDNTYYKEAEKENLVEQSIPSNACSSLEVEAAISRKTPAQPQRRSLRLSAQKDLEQKEKHHVKMKAKRCATPVIIDEILPSKKMKVSNNKKKPEEEGSAHQDTAEKNASSPEKAKGRHTVPCMPPAKQKFLKSTEEQELEKSMKMQQEVVEMRKKNEEFKKLALAGIGQPVKKSVSQVTKSVDFHFRTDERIKQHPKNQEEYKEVNFTSELRKHPSSPARVTKGCTIVKPFNLSQGKKRTFDETVSTYVPLAQQVEDFHKRTPNRYHLRSKKDDINLLPSKSSVTKICRDPQTPVLQTKHRARAVTCKSTAELEAEELEKLQQYKFKARELDPRILEGGPILPKKPPVKPPTEPIGFDLEIEKRIQERESKKKTEDEHFEFHSRPCPTKILEDVVGVPEKKVLPITVPKSPAFALKNRIRMPTKEDEEEDEPVVIKAQPVPHYGVPFKPQIPEARTVEICPFSFDSRDKERQLQKEKKIKELQKGEVPKFKALPLPHFDTINLPEKKVKNVTQIEPFCLETDRRGALKAQTWKHQLEEELRQQKEAACFKARPNTVISQEPFVPKKEKKSVAEGLSGSLVQEPFQLATEKRAKERQELEKRMAEVEAQKAQQLEEARLQEEEQKKEELARLRRELVHKANPIRKYQGLEIKSSDQPLTVPVSPKFSTRFHC
Turning to B1, the binding result is on record as “binds”.

Source of the values: article PMC6363440 (The Journal of Cell Biology, 2019).
